In the DeepSol protein solubility set:

Assay: soluble on expression in E. coli; label from the status in PepcDB or PDB records

Sequence | soluble on expression in E. coli
MSLKVLVTGGAGYVGTELVLKLAKDPSISKVVVFDNLSRENYNLFINSAQRIAKDKIQFEFGDLLDSRKIRKILADIDVVYHLAARVSTPFANADSHLYEQVNHWGTAELVYAIEEIKTVQKLIYVSSCSVYGSGKELIDENSVVNPKTIYGVSKMRGEEHVSRLGNKMNAVIIRLGNVYGYSSSMRFDAVINKFMFESHYKNRISIHGNGRQSRSFIHVDKAVDSLVKITSTDIPSGTYNLTERNLEIYDLIDQVKDLYPTLEFIFINQHLELREQKINPETKLLKYIPLQQTDFTAELAAFRDHFTFQTTSEGHHHHHH | soluble
MNRNDAYHTLISEICALSLISEPERFYESANFKISDVDFTLHYQDRDEGRAILIYGDMGALPARNRDSALLALMDINFHMFSGAHSPAFSWNAQTGRVLLMGSIGLERATAEGVLLLMKSFADLAREWREHGFMGPVGAAGAPVNMPASQATTRDTPASSGRFQ | not soluble
MNTNHYYIRYGCAITLYDNHVSERERLTPKELRFSIEKAVSSFRIQAQEPFSPGSKARFSFVKRKDGNTKNGIFLSPHIVTKDMHAQKVWTKASKFLEIDYLGKDNEREGLLKKDNVSMSNIPISGEYLTFGEKDTGRGSAKISVEEQTYGLITTLTPLKPALQVGKDNFCIIPDIPLNQMVDFIALFDKMQITHLSGEAMLGNIDNKGIPHRPKIFRGNFPNSPKSDRMGAIALLGAIGEFAKHAEFSTLAQKVLDSLKGST | not soluble
MIHDYHWRRGKRRKLIVMMETRMMIIMMTIKPPHDIYREQQNHHDDETKRSTKHCVTATHPWPRPAASCFRCPLRGGHHRRRPACALPHGWSVMNSCSLEHHHHHH | not soluble
TDAMSEEEIKIIINNSYNGGEINQTELAYMQNIFSFDERHAKDIMVPRTQMVTLNEPFNVDELLDTIKEHQFTRYPITEDGDKDHVKGFINVKEFLTEYASGKPIKIANYIHELPMISETTRISDALVRMQREHVHISLIIDEYGGTAGILTMEDILEEIVGEIRDEFDDDEVNDIVKLDDHTY | not soluble
MAHHHHHHMKLLSSVGRLSVVAGGLSLIPYTFIYDVDGGERCVMFNRFGGVSENTYGEGSHFYIPWFQTPYIYDIKMKPKVINTTTGTRDLQIVTLSLRLLFRPHTKQLPYLHSTLGPDYDERVLPSIGNEVLKAVVAKYNAESLLTQRDKISKEIRESITARAKHFNILLDDVAITHLSYGKEFAKAIEDKQVAQQESERVKFIVAKTEQEKIAAVIKAQGEAEAAKLISSAVKEYGNSLLEIRKLEAAKEIAENLSKSKNVTYFPASFNILLNPKNL | not soluble
MGSDKIHHHHHHMSSSHSKNGNENETAKGITRISVSGYKSLYDECSIEIRPLTILAGANSSGKSSIIQPLLLMKQTLEATYDPGALLLNGANVKFTSAEQLISHLPGKERIQRFVIGIEIEHNQSVKNIFTKFPRQPIDLQEMIVEKNDSKVSLSTDTLPADVVNILPKQYLDFYKSIQDTDLKGKFFFIISRNRCFLEFELYDFINQKKLSSQSFLFNYITPDHTELFGRQIRKIIHIPGLRGNPERNYKTTAVGDAFPGTFDNYVASIIHRWQRPRDKRLQELNNALVSLGLTSKVQAKQLDDTQVELRVARLTRNSDNEKDMVSIADVGFGVSQTLPVLVALLVAEPGQLVYIEQPEIHLHPRAQVAMAEILANAAKRGVKIVVETHSDRLILATQSLVAEGNLSPDLVKLHWFTRQEDGITKINSADLDETGAFGDWPEDFGDVSLQLENRYLSAAEARLIQGTHGG | not soluble
MKGGDRAYTRGPSLGWLFAKCCCCFPCRDAYSHSSSENGGKSESVANLQAQPSLNSIHSSPGPKRSTNTLKKWLTSPVRRLNSGKADGNIKKQKKVRDGRKSFDLGSPKPGDETTPQGDSADEKSKKGWGEDEPDEESHTPLPPPMKIFDNDPTQDEMSSSLLAARQASTEVPTAADLVNAIEKLVKNKLSLEGSSYRGSLKDPAGCLNEGMAPPTPPKNPEEEQKAKALRGRMFVLNELVQTEKDYVKDLGIVVEGFMKRIEEKGVPEDMRGKDKIVFGNIHQIYDWHKDFFLAELEKCIQEQDRLAQLFIKHERKLHIYVWYCQNKPRSEYIVAEYDAYFEEVKQEINQRLTLSDFLIKPIQRITKYQLLLKDFLRYSEKAGLECSDIEKAVELMCLVPKRCNDMMNLGRLQGFEGTLTAQGKLLQQDTFYVIELDAGMQSRTKERRVFLFEQIVIFSELLRKGSLTPGYMFKRSIKMNYLVLEENVDNDPCKFALMNRETSERVVLQAANADIQQAWVQDINQVLETQRDFLNALQSPIEYQRKERSTAVMRSQPARLPQASPRPYSSVPAGSEKPPKGSSYNPPLPPLKISTSNGSPGFEYHQPGDKFEASKQNDLGGCNGTSSMAVIKDYYALKENEICVSQGEVVQVLAVNQQNMCLVYQPASDHSPAAEGWVPGSILAPLTKATAAESSDGSIKKSCSWHTLRMRKRAEVENTGKNEATGPRKPKDILGNKVSVKETNSSEESECDDLDPNTSMGILNPNFIQEVAPEFLVPLVDVTCLLGDTVILQCKVCGRPKPTITWKGPDQNILDTDNSSATYTVSSCDSGEITLKICNLMPQDSGIYTCIATNDHGTTSTSATVKVQGVPAAPNRPIAQERSCTSVILRWLPPSSTGNCTISGYTVEYREEGSQIWQQSVASTLDTYLVIEDLSPGCPYQFRVSASNPWGISLPSEPSEFVRLPEYDAAADGATISWKENFDSAYTELNEIGRGRFSIVKKCIHKATRKDVAVKFVSKKMKKKEQAAHEAALLQHLQHPQYITLHDTYESPTSYILILELMDDGRLLDYLMNHDELMEEKVAFYIRDIMEALQYLHNCRVAHLDIKPENLLIDLRIPVPRVKLIDLEDAVQISGHFHIHHLLGNPEFAAPEVIQGIPVSLGTDIWSIGVLTYVMLSGVSPFLDESKEETCINVCRVDFSFPHEYFCGVSNAARDFINVILQEDFRRRPTAATCLQHPWLQPHNGSYSKIPLDTSRLACFIERRKHQNDVRPIPNVKSYIVNRVNQGT | soluble
MGSDKIHHHHHHMAGSLIERTLRVLETLSSEPDGIPLQRLAERLEIPKSAAHRICNELGRQGYVRQETRTGHYRLSTRLIALGFRYLGSTGASDVLQPILDRLADETGELVRLGVIEGDRQTWIAKAQGTRTGLRYDPDMGREAPLRYTASGQAWLASLDDQAALALLERQGHHNPEHFGPNAPRTDYELLDRLALARERGYTCCVDSSALGTSAFGAVIRHPMQGHTIGVISVAGPSVRLTEDRMHELAPKLLQAVEELSQCSQASQLFSE | not soluble
YTDEEWGFLQNQMICDLCEGYAIYRPRYILPDYNVYIQKGCEFLELPPPKDLDEALDGLLILYSHVPSITTYPVYIGRLDVLLEPFITDEEKDYIKIKRFLNHIDKTVPDSFCHANIGPYDTKAGRLILRAVIDLEAPTPNMTIRYDKSKTSREFAELAAKACLLVSKPSFANDAYYISDLGEEYGVASCYNALPECGGAYTLTRLRLGTIARTCKSADEMLNELLPRVAKCALSTMDKRHKFVVEESNFFNSSFLEKEGFIKRTNFTGMFAIVGLADATNHLLQCEGLNETFGKSVRGDEIATAIMDKLKEITDAHEGVYAERTGNRYLLHAQVGASNHEEDKRNAPAHRIRVGEEPTLLAHLKQSAPFHKYFPSGTGDLFAFDQTYVDHCDAVVDIIDGAFSLGYRYITTYLKNTDLIRVTGYLVKKSEVEKYRKGEVALR | not soluble
METGTPLIAETIALTEKKVAMALDDIIKLAKRKTNVNKGKKPRREKNKNQNFNGAARNNTSNVRHHMNSLSAVRQGAVGKRRSRFQGIQFPVTTNIARKASTAAPLDFRGRAFNGGRMTSANQSRLIAPPVQNISVQARVNAKRHEVDQKVEHRGGKRKTLDSRFASMKEQRMTINNYGVTVQVPRLPPWVRARRFSQ | not soluble
MKKALLYRRGGLGDTLLTFPILEILKRRGYETIAVGNTDYFSIAKEVGYADGVYSFIPEEEFDLKVIISFEGNVKPFPEKREWIVKHYLNSLGLGEEFSTKLPIKPVQDSPLKGKVVIHPSSGSKKKNPPLEVFLKLKDFLEERGKEVVFLLGEAEEHLREVLSPHFLSLSPLEIAKHLKTAGFYVGLDSGISHLASYLGVPSFIVYGPTDPLVWRPIGDKVFQISLNLDCSPCFPNVCEERMCLDTEEVLRKTKETLLRYWNSL | not soluble
MHRGITVQTSDLDDGVTGVVGKVYIEASPKHVWAAITDYNNHKSFVPKLIDSGLISDNGREQVMFERGKTGIFLFRKTVYIKLSLQGEYPKRLDFHQIEGDFKVYEGDWLIERASDGKGSILTFRAKIKPDFFAPAMFVRKVQQNDLPMVLAAMKKRAESAEGSLEHHHHHH | not soluble
